Test system: CHO-parent cells
Experiment: Flow cytometry binding assay on CHO-parent cells (background binding)
Parameters: species or system Chinese Hamster
Settings: for Median RL1-H of Parent Singlets: Table 6C, GLP1R-221 variants; for Bmax CHO Parent: Table 6E, IgG titration
Protocol: GLP-1R IgG clones were tested in a binding assay coupled to flow cytometry analysis as follows: FLAG-GLP-1R-GFP expressing CHO cells (CHO-GLP-1R) and CHO-parent cells were incubated with 100 nM IgG for 1 h on ice, washed three times and incubated with Alexa 647 conjugated goat-anti-human antibody (1:200) (Jackson ImmunoResearch Laboratories, 109-605-044) for 30 min on ice, followed by three washes, centrifuging to pellet the cells between each washing step. All incubations and washes were in buffer containing PBS+1% BSA. For titrations, IgG was serially diluted 1:3 starting from 100 nM down to 0.046 nM. Cells were analyzed by flow cytometry and hits (a hit is an IgG that specifically binds to CHO-GLP-1R) were identified by measuring the GFP signal against the Alexa 647 signal. Flow cytometry data of binding assays with 100 nM IgG are presented as dot plots. Analyses of binding assays with IgG titrations are presented as binding curves plotting IgG concentrations against MFI (mean fluorescence intensity).

Molecule | Median RL1-H of Parent Singlets | Bmax CHO Parent
GLP1R221-084: GLP1R-221 variant, optimized from GLP1R-3 (antibody, V domains shown) VH: QVQLVESGGGVVQPGRSLRLSCAASGFAFSNYGMHWVRQAPGKGLEWVAVISSDENNKYYADSVKGRFTISRDNSKNTLYLQMNSLRAEDTAVYYCAKHMSMQEGAVTGEMQAAKEFIAWLVKGRVRADLVGDAFDVWGQGTLVTVSS VL: QSVLTQPPSVSAAPGQKVTISCSGSSSNIADNYVSWYQQLPGTAPKLLIYENNRRPSGIPDRFSGSKSGTSATLGITGLQTGDEADYYCGTWDVSLSVGMFGGGTKLTVL | 207 | 266.6
GLP1R221-092: GLP1R-221 variant, optimized from GLP1R-3 (antibody, V domains shown) VH: QVQLVESGGGVVQPGRSLRLSCAASGFIFNNYGMHWVRQAPGKGLEWVAFISYGGSNKYYADSVKGRFTISRDNSKNTLYLQMNSLRAEDTAVYYCAKHMSMQEGAVTGEGQAVKEFIAWLVKGRVRADLVGDAFDVWGQGTLVTVSS VL: QSVLTQPPSVSAAPGQKVTISCSGTTSNIANNFVSWYQQLPGTAPKLLIYDNNKRPPGIPDRFSGSKSGTSATLGITGLQTGDEADYYCGTWDTSLSVGMFGGGTKLTVL | 326 | 291.2
GLP1R221-066: GLP1R-221 variant, optimized from GLP1R-3 (antibody, V domains shown) VH: QVQLVESGGGVVQPGRSLRLSCAASGFTFNNYAMHWVRQAPGKGLEWVAVISYDRSNEYYADSVKGRFTISRDNSKNTLYLQMNSLRAEDTAVYYCAKHMSMQEGAVTGEGQAIKEFIAWLVKGRVRADLVGDAFDVWGQGTLVTVSS VL: QSVLTQPPSVSAAPGQKVTISCSGSSSNIGNNYLSWYQQLPGTAPKLLIYENNKRPSGIPDRFSGSKSGTSATLGITGLQTGDEADYYCGIWDRSLSAWVFGGGTKLTVL | 240 | 112.1
GLP1R221-033: GLP1R-221 variant, optimized from GLP1R-3 (antibody, V domains shown) VH: QVQLVESGGGVVQPGRSLRLSCAASGFSFSNYAMHWVRQAPGKGLEWVAVISHDRSNKYYADSVKGRFTISRDNSKNTLYLQMNSLRAEDTAVYYCAKHMSMQEGAVTGEGQAAKDFIAWLVKGRVRADLVGDAFDVWGQGTLVTVSS VL: QSVLTQPPSVSAAPGQKVTISCSGSSSNIGNEYVSWYQQLPGTAPKLLIYDNNKRVSGIPDRFSGSKSGTSATLGITGLQTGDEADYYCATWDTSLNVGVFGGGTKLTVL | 236 | 146
GLP1R221-065: GLP1R-221 variant, optimized from GLP1R-3 (antibody, V domains shown) VH: QVQLVESGGGVVQPGRSLRLSCAASGFTFNNYAMHWVRQAPGKGLEWVAVISYDRSNEYYADSVKGRFTISRDNSKNTLYLQMNSLRAEDTAVYYCAKHMSMQEGAVTGDGQAAKEFIAWLVKGRVRADLVGDAFDVWGQGTLVTVSS VL: QSVLTQPPSVSAAPGQKVTISCSGTTSNIANNFVSWYQQLPGTAPKLLIYDHNKRPSGIPDRFSGSKSGTSATLGITGLQTGDEADYYCGTWDTSLSAGAFGGGTKLTVL | 298 | 261.9
GLP1R221-076: GLP1R-221 variant, optimized from GLP1R-3 (antibody, V domains shown) VH: QVQLVESGGGVVQPGRSLRLSCAASGFTFNNYPMHWVRQAPGKGLEWVAVISYDETNKYYADSVKGRFTISRDNSKNTLYLQMNSLRAEDTAVYYCAKHMSMQEGAVTGEGQAAKEFIAWLVKGIVRADLVGDAFDVWGQGTLVTVSS VL: QSVLTQPPSVSAAPGQKVTISCSGTSSNIGNNDVSWYQQLPGTAPKLLIYENNKRHSGIPDRFSGSKSGTSATLGITGLQTGDEADYYCLTWDHSLTAYVFGGGTKLTVL | 316 | 183.2

— US12391762B2, “Methods and compositions relating to GLP1R variants” (Twist Bioscience Corporation, priority 2020, dated 2025)
